The values that follow come from paper PMC4685008.

The target in assay [1] is mGluR5 (endogenous) (UniProt Q3UVX5). Kind of assay: co-IP with myc antibody, mGluR5 blot.
Assay [2] shares this target. The assay is described as follows: co-IP of myc-Homer. Conditions: reference: H2WT replacement; sites S117,S216.

For the substance “Homer1 (H1, long form) (from UniProt Q9Z2Y3) H1mycS117A”, the “binding against the reference” value with mGluR5 (endogenous) [1] (reference: H1mycWT, sites S117) was “stronger”.

As for “Homer2 (H2) (from UniProt Q9QWW1) H2S117/216AA replacement”, the “binding against the reference” value with mGluR5 (endogenous) [2] was “stronger”.

Take “Homer2 (H2) (from UniProt Q9QWW1) H2mycS117/216AA”: the “binding against the reference” value with mGluR5 (endogenous) [1] (reference: H2mycWT, sites S117,S216) is given as “stronger”.
